Results on 3 molecules are retold here after patent publication US20170088624A1 (Janssen / Centocor, published 2017).

The target in test [1] is T1, Full length human CD40 (huCD40) on cells (human, UniProt P25942 21-277).
T1 construct: CD40 on human mature DCs, human B cells, Raji cells and HEK-Blue CD40L cells (stably expressing human CD40); also called TNFRSF5
In words: flow cytometry, HEK-Blue CD40L cells.

For test [2], the target named is T1, Full length human CD40 (huCD40) on cells. In words: cell-based or functional assay.
For test [3], the target named is T2, human CD40 (SPR analyte) (human, UniProt P25942 21-193).
T2 construct: also called huCD40-ECD
In words: SPR ProteOn XPR36, mAb captured, CD40 as analyte, 25 C; upper end of the range of n = 2; upper end of the range of the n = 2 replicates. As to the method:
(§1) Affinity measurements were performed using Surface Plasmon Resonance (SPR) using a ProteOn XPR36 system (BioRad). […] Approximately 5000 RU (response units) of mAbs were immobilized. The kinetic experiments were performed at 25° C. in running buffer (DPBS+0.01% P20+100 μg/ml BSA). To perform kinetic experiments, 200 RU of mAbs were captured followed by injections of analytes (human or cyno CD40) at 5 concentrations (in a 4-fold serial dilution). The association phase was monitored for 3 minutes at 50 μL/min, then followed by 15 minutes of buffer flow (dissociation phase). The chip surface was regenerated with two 18 second pulses of 100 mM H₃PO₄ (Sigma, Cat#7961) at 100 μL/min.
(§2) The collected data were processed using ProteOn Manager software. First, the data was corrected for background using inter-spots. Then, double reference subtraction of the data was performed by using the buffer injection for analyte injections. The kinetic analysis of the data was performed using a Langmuir 1:1 binding model. The result for each mAb was reported in the format of Ka (On-rate), Kd (Off-rate) and KD (equilibrium dissociation constant).
(§3) The parameters reported in this table were obtained from a 1:1 Langmuir binding model for all samples. Affinity, KD=kd/ka.

In test [4] the target is T3, cyno CD40 (SPR analyte) (Macaca fascicularis (cynomolgus), UniProt P25942 21-193 (human entry), limits assumed).
T3 construct: also called cCD40-ECD
T3 chain: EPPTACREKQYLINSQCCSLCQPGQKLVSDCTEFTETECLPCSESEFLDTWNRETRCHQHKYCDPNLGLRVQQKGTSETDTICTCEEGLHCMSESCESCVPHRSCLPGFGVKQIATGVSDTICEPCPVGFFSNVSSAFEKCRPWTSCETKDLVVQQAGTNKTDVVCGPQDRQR
In words: SPR ProteOn XPR36, mAb captured, cyno CD40 as analyte, 25 C; did not fit well to 1:1 model. How it is done: as §1, §2, §3

In test [5] the target is T2, human CD40 (SPR analyte). In words: SPR ProteOn XPR36, mAb captured, CD40 as analyte, 25 C; lower end of the range of n = 2. As to the method:
as §1, §2, §3

For test [6], the target named is T4, Macaca fascicularis (cyno) CD40 (cCD40) on cells (Macaca fascicularis (cynomolgus), UniProt P25942 21-277 (human entry)).
T4 construct: CD40 on cyno mature DCs
T4 chain: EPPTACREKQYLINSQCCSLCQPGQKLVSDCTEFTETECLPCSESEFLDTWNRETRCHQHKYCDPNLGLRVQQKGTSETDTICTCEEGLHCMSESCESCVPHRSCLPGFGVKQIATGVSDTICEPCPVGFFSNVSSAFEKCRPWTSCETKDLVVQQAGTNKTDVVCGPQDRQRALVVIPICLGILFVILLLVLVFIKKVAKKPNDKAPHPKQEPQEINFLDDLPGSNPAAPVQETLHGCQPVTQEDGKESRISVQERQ
In words: flow cytometry, cyno mature DCs. As to the method: (§4) Human monocytes were isolated from either frozen/fresh PBMC using CD14 negative isolation kit per manufacturer's protocol (MACS Miltenyi). Cyno monocytes were isolated from fresh PBMC using CD14 positive isolation kit per manufacturer's protocol (MACS Miltenyi). To generate DCs, monocytes were cultured for 5 days in complete media RPMI (Invitrogen) in the presence of 100 ng/ml human GM-CSF and human IL-4 (Peprotech) and media was replenished every 2 days. On day 5, DCs were stimulated with 100 ng/ml LPS (Sigma) for 24 hours. Cells were then stained with each of the tested CD40 antibody at different concentration in flow cytometry buffer (PBS+1% FBS; BD Bioscience) in 100 μl volume for 30 minutes on ice followed with two washes with flow buffer. Cells were then stained for additional 30 minutes on ice with APC-conjugated anti human IgG (Jackson ImmunoResearch) at the recommended dilution 1:100 and washed twice with flow buffer. Cells were analyzed for percent positive and Mean Fluorescence Intensity (MFI) to determine the antibody binding using Fortessa (BD Bioscience).
(§5) The experiments were conducted using assays described above. 20 antibodies were characterized further based on their binding to human DCs, cyno DCs, Raji cells and HEK-Blue™ CD40L cells.
A general note: In flow cytometry, cells or beads pass a laser one at a time.

The target of test [7] is T1, Full length human CD40 (huCD40) on cells. In words: flow cytometry, Raji cells.
Test [8] shares this target. In words: cell-based or functional assay. The source holds these as a separate data set.
Test [9] addresses T2, human CD40 (SPR analyte). In words: SPR ProteOn XPR36, mAb captured, CD40 as analyte, 25 C; upper end of the range of n = 2. As to the method:
as §1, §2, §3

In test [10] the target is T2, human CD40 (SPR analyte). In words: SPR ProteOn XPR36, mAb captured, CD40 as analyte, 25 C; lower end of the range of n = 2; lower end of the range of the n = 2 replicates. How it is done: as §1, §2, §3
The target of test [11] is T1, Full length human CD40 (huCD40) on cells. In words: flow cytometry, human mature DCs. How it is done:
as §4, §5

The target in test [12] is T2, human CD40 (SPR analyte). In words: SPR ProteOn XPR36, mAb captured, CD40 as analyte, 25 C; average of n = 2; did not fit well to 1:1 model. How it is done:
as §1, §2, §3

Test [13] has as its target T1, Full length human CD40 (huCD40) on cells. In words: flow cytometry, HEK-Blue CD40L cells. This is another data set of the same source.
Target sequence in this assay (P25942 21-277): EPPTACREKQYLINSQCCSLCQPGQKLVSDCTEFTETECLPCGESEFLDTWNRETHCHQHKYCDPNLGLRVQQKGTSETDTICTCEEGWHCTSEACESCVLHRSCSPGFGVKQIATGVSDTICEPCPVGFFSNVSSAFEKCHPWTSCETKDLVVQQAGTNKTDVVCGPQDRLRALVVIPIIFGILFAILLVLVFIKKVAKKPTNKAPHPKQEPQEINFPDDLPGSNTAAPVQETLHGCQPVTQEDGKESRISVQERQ
Test [14] has the same target. In words: flow cytometry, human DCs.
Target sequence in this assay (P25942 21-277): as above
Test [15] concerns the target T2, human CD40 (SPR analyte). In words: SPR ProteOn XPR36, mAb captured by anti-human IgG Fc, CD40 as analyte, 25 C. How it is done: as §1, §2, §3
Test [16] concerns the target T1, Full length human CD40 (huCD40) on cells. In words: flow cytometry, human B cells.
Target sequence in this assay (P25942 21-277): as above
Test [17] deals with T3, cyno CD40 (SPR analyte). In words: SPR ProteOn XPR36, mAb captured by anti-human IgG Fc, cyno CD40 as analyte, 25 C. How it is done:
as §1, §2

Test [18] deals with T1, Full length human CD40 (huCD40) on cells. In words: cell-based or functional assay. The source holds these as a separate data set.
Target sequence in this assay (P25942 21-277): as above
For test [19] the target is unchanged. In words: flow cytometry, human B cells; separate experiment.
Target sequence in this assay (P25942 21-277): as above
Test [20] shares this target. In words: flow cytometry, HEK-Blue CD40L cells; separate experiment.
Target sequence in this assay (P25942 21-277): as above
Test [21] has the same target. In words: flow cytometry, human DCs; separate experiment.

B1: C40M55 (antibody, human IgG1, kappa, V domains shown)
VH: QVQLVQSGAEVKKPGSSVKVSCKASGGTFSSYAISWVRQAPGQGLEWMGGIIPIFGTANYAQKFQGRVTITADESTSTAYMELSSLRSEDTAVYYCARDGYRRYGIGRYGFDYWGQGTLVTVSS
VL: not shown
notes: Full-length IgG1/kappa; from phage display
On to B1, for which, in test [1], the EC50 was determined as 0.0631 µg/mL. In test [2], the “B cells EC50, CD23 surface expression, with cross-linker” value is 0.0616 µg/mL; the “B cells EC50, CD80 surface expression, with cross-linker” value turned out to be 0.00143 µg/mL; the “B cells EC50, CD83 surface expression, with cross-linker” value came out at 0.00125 µg/mL; the “B cells EC50, CD86 surface expression, with cross-linker” value worked out at 0.000646 µg/mL. Also, the “B cells EC50, HLA-DR surface expression, with cross-linker” value in test [2] was determined as 0.000437 µg/mL. In the test with human CD40 (SPR analyte) [3], this molecule returned an off-rate constant (koff) of 0.00217 s⁻¹ and a kon of 1.02e+06 M⁻¹ s⁻¹. Besides, in the test with cyno CD40 (SPR analyte) [4], the Kd was found to be 2.59 nM, the koff was 0.00215 s⁻¹ and the kon was 831000 M⁻¹ s⁻¹. The molecule also displayed a Kd with human CD40 (SPR analyte) [5] of 2.12 nM. This molecule also showed an EC50 in test [6] of 0.0218 µg/mL. Further, the concentration giving a half-maximal response (EC50) in test [7] turned out to be 0.0461 µg/mL. Further, in test [8], the “DC EC50, CD80 surface expression, with cross-linker” value came out at 0.0616 µg/mL; the “DC EC50, CD83 surface expression, with cross-linker” value stood at 0.103 µg/mL; the “DC EC50, CD86 surface expression, with cross-linker” value was 0.198 µg/mL; the “DC EC50, HLA-DR surface expression, with cross-linker” value is 0.0811 µg/mL. In the test with human CD40 (SPR analyte) [9], this molecule registered a Kd of 2.17 nM. In the test with human CD40 (SPR analyte) [10], this molecule registered a koff of 0.00188 s⁻¹ and an association rate constant (kon) of 868000 M⁻¹ s⁻¹. The EC50 in test [11] stood at 0.102 µg/mL. In the test with human CD40 (SPR analyte) [12], this molecule gave a Kd of 2.15 nM, a koff of 0.00203 s⁻¹ and a kon of 944000 M⁻¹ s⁻¹.

B2: C40M18 (antibody, human IgG1, lambda, V domains shown)
VH: EVQLVESGGGLVQPGGSLRLSCAASGFTFSSYAMSWVRQAPGKGLEWVSIINNNVGRTYYADSVKGRFTISRDNSKNTLYLQMNSLRAEDTAVYYCAKEGGDYYYYGMDVWGQGTTVTVSS
VL: SYELTQPPSVSVSPGQTASITCSGDKLGDKYVCWYQQKPGQSPVVVIYQDSKRPSGIPERFSGSNSGNTATLTISGTQAMDEAYYYCQAWVSSTVVFGGGTKLTVLG
notes: Full-length IgG1/lambda; from OmniRat (OMT); VH C40H48, VL C40L64
As for B2, the 50% effective concentration (EC50) in test [1] was 0.126 µg/mL. For the same molecule, in test [2], the “B cells EC50, CD23 surface expression, with cross-linker” value came to 0.306 µg/mL; the “B cells EC50, CD80 surface expression, with cross-linker” value is 0.0481 µg/mL; the “B cells EC50, CD83 surface expression, with cross-linker” value is 0.0624 µg/mL; the “B cells EC50, CD86 surface expression, with cross-linker” value was determined as 0.00873 µg/mL. For the same molecule, in test [2], the “B cells EC50, HLA-DR surface expression, with cross-linker” value worked out at 0.0239 µg/mL. In test [13], the EC50 is 0.15 µg/mL. Also, in [14], the concentration giving a half-maximal response (EC50) worked out at 0.267 µg/mL. This molecule showed an EC50 in test [6] of 0.0389 µg/mL. Further, the midpoint of the response in [7], the EC50, lay at 0.073 µg/mL. Further, in the test with human CD40 (SPR analyte) [15], binding was characterised by a dissociation constant (Kd) of 0.151 nM, the koff came out at 0.000162 s⁻¹ and the kon is 1.07e+06 M⁻¹ s⁻¹. The molecule also had an EC50 in test [16] of 0.11 µg/mL. Also, in the test with cyno CD40 (SPR analyte) [17], the Kd amounted to 0.0712 nM, the koff was 9.41e-05 s⁻¹ and the on-rate constant (kon) amounted to 1.32e+06 M⁻¹ s⁻¹. For the same molecule, in test [8], the “DC EC50, CD80 surface expression, with cross-linker” value is 0.0523 µg/mL; the “DC EC50, CD83 surface expression, with cross-linker” value was 0.0478 µg/mL; the “DC EC50, CD86 surface expression, with cross-linker” value came out at 0.0302 µg/mL; the “DC EC50, HLA-DR surface expression, with cross-linker” value was determined as 0.0105 µg/mL. In test [11], this molecule had an EC50 of 0.352 µg/mL. Further, in test [18], the “EC50, Human B cells (CD83)” value worked out at 0.0226 µg/mL; the “EC50, Human DC (HLA-DR)” value was 0.166 µg/mL; the “EC50, agonistic activity on HEK-Blue™ CD40L cells (NF-κB/SEAP)” value was determined as 0.0696 µg/mL.

B3: C40M121 (antibody, human IgG1, lambda, V domains shown)
VH: QLQLQESGPGLVKPSETLSLTCTVSGGSISSSSYYWGWIRQPPGKGLEWIGNIYYRGDTYYSPSLKSRVTISVDTSKNQFSLKLSSVTAADTAVYYCAKGFRFDYWGQGTLVTVSS
VL: QSALTQPPSASGSPGQSVTISCTGTSSDVGGYNYVSWYQQHPGKAPKLMIYEVSKRPSGVPDRFSGSKSGNTASLTVSGLQAEDEADYYCSSYAGSNNLVFGGGTKLTVLG
B3: the EC50 in test [19] is 0.0228 µg/mL. Also, the response in [20] was half-maximal at 0.464 µg/mL (EC50). In test [21], this molecule came in with an EC50 of 0.0572 µg/mL. Also, in test [18], the “EC50, Human B cells (CD83), separate experiment” value is 0.000334 µg/mL; the “EC50, Human DC (HLA-DR), separate experiment” value came out at 0.0185 µg/mL; the “EC50, agonistic activity on HEK-Blue™ CD40L cells (NF-κB/SEAP), separate experiment” value was 0.00633 µg/mL.

By EC50 is commonly meant the concentration at which the effect is half-maximal. Higher therefore signals weaker potency. Usually koff stands for a measure of how fast the partners let go of each other. Low readings indicate slow dissociation, high ones fast dissociation. In general, kon refers to the rate constant with which the complex forms. Low values mean slow association, high ones fast association. A word on the Kd: it is a measure of binding affinity in units of concentration. A higher Kd goes with a looser complex.
